According to patent US20190241662A1 (ADAGENE, published 2019):

T1: recombinant human CTLA4 fused with human Fc and His tag (human, UniProt P16410 36-162, limits assumed)
T1 construct: Coated in the CD80 ELISA, biotinylated and in solution in the CD86 ELISA; also called biotinylated human CTLA4 fused with human FC and His tag
T1 sequence (looked up): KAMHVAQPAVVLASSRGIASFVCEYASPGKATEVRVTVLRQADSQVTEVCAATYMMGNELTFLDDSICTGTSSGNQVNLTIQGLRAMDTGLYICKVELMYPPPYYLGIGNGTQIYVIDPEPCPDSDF

T2: recombinant human CTLA4 protein (construct not stated) (human, UniProt P16410 36-162, limits assumed)
T2 construct: also called biotinylated human CTLA4; human recombinant CTLA4 proteins
T2 sequence (looked up): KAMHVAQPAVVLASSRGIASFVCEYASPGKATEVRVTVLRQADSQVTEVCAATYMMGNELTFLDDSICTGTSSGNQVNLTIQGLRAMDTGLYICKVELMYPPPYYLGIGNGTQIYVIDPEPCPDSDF

T3: monkey CTLA4 (SPR analyte, construct not stated) (monkey, UniProt G7PL88 36-161)
T3 sequence: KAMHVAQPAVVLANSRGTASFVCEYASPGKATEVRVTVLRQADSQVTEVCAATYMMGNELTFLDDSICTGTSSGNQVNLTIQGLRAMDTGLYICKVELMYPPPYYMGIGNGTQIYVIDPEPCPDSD

T4: recombinant human CTLA4-Fc (human, UniProt P16410 36-162)
T4 construct: also called human CTLA4 fused with human FC fragment; CTLA4-Fc (Sino Biological, 11159-H03H)
T4 sequence (looked up): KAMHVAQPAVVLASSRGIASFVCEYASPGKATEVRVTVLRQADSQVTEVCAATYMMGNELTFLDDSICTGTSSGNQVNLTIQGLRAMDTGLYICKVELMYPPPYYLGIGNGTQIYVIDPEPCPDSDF

T5: canine CTLA4 fused with His tag (canine, UniProt Q9XSI1 36-162, limits assumed)
T5 construct: also called dog CTLA4
T5 sequence (looked up): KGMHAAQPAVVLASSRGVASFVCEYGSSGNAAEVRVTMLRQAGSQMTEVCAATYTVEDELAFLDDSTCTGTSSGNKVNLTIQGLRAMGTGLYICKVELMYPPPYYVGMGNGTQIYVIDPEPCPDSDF

T6: full-length human CTLA4 expressed on cells (human, UniProt P16410 36-223)
T6 construct: whole, on cells; also called HEK293F/hCTLA-4 cells; HEK293F/hCTLA4 cells
T6 sequence (looked up): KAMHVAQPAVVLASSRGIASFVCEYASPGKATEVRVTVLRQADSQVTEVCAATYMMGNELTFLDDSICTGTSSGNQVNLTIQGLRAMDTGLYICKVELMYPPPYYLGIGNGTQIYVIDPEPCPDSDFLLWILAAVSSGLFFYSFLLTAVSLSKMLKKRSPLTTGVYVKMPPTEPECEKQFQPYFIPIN


Experiments:
[1] = molecular target: T1, recombinant human CTLA4 fused with …; test: competition ELISA: plate-bound human CTLA4-Fc-His, biotinylated CD80 as blocked ligand
Protocol: Antibodies were then tested for their ability to block binding of CTLA4 to its cognate ligands CD80 and CD86 by ELISA. […] Plates were blocked with PBS supplemented with 2% (w/v) skim milk at 37° C. for 1 hour. […] Plates were washed four times, and 100 μL HRP-neutravidin (1:1000) was added to each well and incubated at 37° C. for 1 hour. Plates were washed as previously described, and 50 μL TMB substrate solution was added and incubated at room temperature for 5 minutes before the reaction was stopped by 50 μL sulfate acid (2M).

[2] = molecular target: T2, recombinant human CTLA4 protein …; test: SPR (Biacore T200), IgG captured by anti-human Fc
Text: (§1) Binding affinity and kinetics of antibodies against human, monkey and mouse CTLA4 were examined (Table 4) by surface plasmon resonance (SPR) analysis using a Biacore™ T200 instrument (Biacore AB, Uppsala, Sweden) according to the manufacturer's guidelines. Anti-Human IgG (Fc) antibody from Human Antibody Capture Kit (GE BR-1008-39) was immobilized on CM5 chips by coupling of its amine groups onto carboxylated surfaces of sensor chips according to the instructions of an Amine Coupling kit (GE Biacore #BR-1000-50). […] The association and dissociation curves were fitted to a 1:1 Langmuir binding model using Biacore T200 Evaluation Software (Biacore AB) according to the manufacturer's guidelines.

[3] = molecular target: T3, monkey CTLA4 (SPR analyte, construct …); test: SPR (Biacore T200), IgG captured by anti-human Fc
Text: as §1

[4] = molecular target: mouse CTLA4 (SPR analyte, construct not stated) (mouse, UniProt P09793 36-162, limits assumed); test: SPR (Biacore T200), IgG captured by anti-human Fc
Text: as §1

[5] = molecular target: T4, recombinant human CTLA4-Fc; test: ELISA, coated human CTLA4-Fc
Protocol: (§2) The ability of certain IgG antibodies to bind to soluble human (FIG. 1A, Table 5A) or canine (FIG. 1B, Table 5B) CTLA4 was next tested. 1 μg/mL human CTLA4 fused with human FC fragment, or canine CTLA4 fused with His tag, were prepared and used to coat an ELISA plate at 2-8° C. overnight. After blocking, 100 μL serial diluted IgG antibodies were added and incubated at 37° C. for 1 hour. Plates were washed for four times and then incubated with HRP-anti human IgG (Fab specific) (1:6000 dilution) at 37° C. for 1 hour. Plates were washed again four times and incubated with TMB substrate for 15 minutes at room temperature. […] The data was analyzed by Graphpad Prism 6 with nonlinear fitting.

[6] = molecular target: T5, canine CTLA4 fused with His tag; test: ELISA, coated canine CTLA4-His
Protocol: as §2

[7] = molecular target: T6, full-length human CTLA4 expressed on …; test: flow cytometry blocking: HEK293F cells with human CTLA4, 100 nM antibody, then 100 nM CD80-Fc-Bio (blocked ligand); PBSA panel: Mean 157692, 26.3%
Protocol: Antibodies were also tested for their ability to block binding of CTLA4 to its cognate ligands CD80 and CD86 by flow cytometry. The plasmid encoding full-length human CTLA4 was transiently expressed in HEK293F cells. Cells were washed with staining buffer (PBSA buffer including 1.76 mM KH₂PO₄, 10.14 mM Na₂HPO₄.12H₂O, 2.68 mM KCl, 136.89 mM NaCl and 1% BSA), and resuspended in staining buffer containing 100 nM test antibodies. […] Cells were washed once, and analyzed by CytoFlex flow cytometry.

Row | Binder | IC50 (read off the curve) [1] [nM] | Kd [2] [nM] | Kd [3] [nM] | Kd [4] [nM] | EC50 [5] [nM] | Kd [5] [nM] | LogEC50 [5] | EC50 [6] [nM] | Kd [6] [nM] | LogEC50 [6] | % of cells in upper right quadrant (CD80-positive) in the presence of the antibody [7] [%] | Mean of the CD80 binding signal in the presence of the antibody [7]
1 | TY21691 (antibody, V domains shown, human IgG1 (hIgG1) from Fab hit B15736) VH: EVQLVESGGGLVQPGGSLRLSCAASGFTFSDYAIHWVRQAPGKGLEWIGIISPSGGSTKYAQKFQGRVTISRDNSKNTLYLQLNSLRAEDTAVYYCARLGYGYFDVWGQGTLVTVSS VL: DIQLTQSPSSLSASVGDRVTITCRASQSVDFYGISFLHWYQQKPGKAPKLLIYDASSLESGVPSRFSGSGSGTDFTLTISSLQPEDFATYYCVQALQLPLTFGQGTKVEIK | ~20 | 2.08 | 2.44 | 1.46 | – | – | – | – | – | – | – | –
2 | TY21687 (antibody, V domains shown, human IgG1 (hIgG1) from Fab hit B15700) VH: EVQLVESGGGLVQPGGSLRLSCAASGFTFSGYAIHWVRQAPGKGLEWIGIISPSGGGTKYAQKFQGRVTISRDNSKNTLYLQLNSLRAEDTAVYYCARHPFAYWGQGTLVTVSS VL: DIQLTQSPSSLSASVGDRVTITCRASQSVDFYGISFLDWYQQKPGKAPKLLIYDASNRATGIPSRFSGSGSGTDFTLTISSLQPEDFATYYCQQYVSSPPEYTFGQGTKVEIK | ~20 | 1.82 | 1.52 | 2.76 | 0.32 | 0.32 | -9.49 | 0.745 | 0.75 | -9.13 | – | –
3 | TY21585 (antibody, V domains shown, human IgG1 (hIgG1) from Fab hit B15709) VH: EVQLVESGGGLVQPGGSLRLSCAASGFTFSDYAIHWVRQAPGKGLEWIGIISPSSGSTNYAQKFQGRVTISRDNSKNTLYLQLNSLRAEDTAVYYCARDIHSGSSGYYYGFDVWGQGTLVTVSS VL: DIQLTQSPSSLSASVGDRVTITCRASESVDFFGISFLAWYQQKPGKAPKLLIYDASNRATGIPSRFSGSGSGTDFTLTISSLQPEDFATYYCQHYTSSPPVYTFGQGTKVEIK | ~10 | 8.15 | 8.26 | 1.71 | 0.555 | 0.56 | -9.26 | 6.04 | 6.05 | -8.22 | 22.5 | 83700
4 | TY21591 (antibody, V domains shown, human IgG1 (hIgG1) from Fab hit B15756) VH: EVQLVESGGGLVQPGGSLRLSCAASGFSLSTGGVAVSWIRQAPGKGLEWIGEIYHSGSTYYSPSLKSRVTISRDNSKNTLYLQLNSLRAEDTAVYYCARRIATATYFDYWGQGTLVTVSS VL: DIQLTQSPSSLSASVGDRVTITCRASQTVFSRYLAWYQQKPGKAPKLLIYDASNRATGIPSRFSGSGSGTDFTLTISSLQPEDFATYYCQQSYYWPPWTFGQGTKVEIK | ~10 | 9.68 | 3.27 | – | 0.831 | 0.83 | -9.08 | 0.707 | 0.71 | -9.15 | 24.9 | 68500
